This passage reports EC50 (pM) Neutralization, South Africa B.1.351, EC50 (pM) Neutralization, N439K and pseudovirus neutralization, potency against REGN10933 results from patent publication US20250092160A1.

Several values for one entry are separate records, joined by “and”; a condition that tells them apart may be missing. Identical values can stand only once.

Assay [1] has as its target SARS-CoV-2 South African Δ3 B.1.351 variant (pseudovirus RVP-724) (SARS-CoV-2) (UniProt P0DTC2). In words: cell-based or functional assay.
Assay [2] has as its target SARS-CoV-2 N439K variant (pseudovirus RVP-703) (SARS-CoV-2) (UniProt P0DTC2). Description: cell-based or functional assay.

With REGN10987 (antibody), in assay [1], the EC50 (pM) Neutralization, South Africa B.1.351 is 2.48 pM and 2.37 pM. For the same substance, in assay [2], the EC50 (pM) Neutralization, N439K was 2260 pM and 2220 pM; the pseudovirus neutralization, potency against REGN10933 was 1000 fold.
